The assay has as its target SmT1v3-R, tagless resistin-trimerized SARS-CoV-2 spike ectodomain, reference strain (SARS-CoV-2 | human) (UniProt P0DTC2). Kind of assay: SEC-MALS; UPLC-SEC on a 4.6 x 300 mm Acquity BEH450 column in PBS + 0.02% Tween-20, coupled to a miniDAWN MALS detector and Optilab T-rEX refractometer; trimer and hexamer populations by molecular weight. A general note: Size exclusion chromatography separates by hydrodynamic size, large species first.

Where “and” joins values, the source holds several entries; their conditions need not be identical. Identical values can stand only once.

By stoichiometry N is commonly meant the number of molecules, sites or subunits per partner or assembly. As to “SmT1v3-R, tagless resistin-trimerized SARS-CoV-2 spike ectodomain, reference strain (from UniProt P0DTC2 14-1208; Q9HD89-1 23-108)”, the percent of the protein as hexamer was 3%; the percent of the protein as trimer was 96%; the stoichiometry N was 3 and 6.
